# Test results published in patent US20190071490A1 (BETH ISRAEL DEACONESS MEDICAL CENTER, published 2019).
# T1: rat α-CGRP (1-37) (rat, C-terminal amide; N-terminal biotin when captured on the SA chip)
# T1 construct: also called rat α (1-37); α-rat
# T1 peptide: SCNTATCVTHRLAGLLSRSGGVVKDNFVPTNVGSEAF
# T2: human α-CGRP 1-37 (WT) (human, C-terminal amide; N-terminal biotin when captured on the SA chip; 125I-labelled in the radioligand assay)
# T2 construct: also called α-human
# T2 peptide: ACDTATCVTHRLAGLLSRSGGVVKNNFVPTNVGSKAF
# Key:
# [1] = molecular target: T1, rat α-CGRP (1-37); assay: Biacore, 37°C, Fab over CGRP on SA chip
# Procedure: (§1) Biacore assay for affinity determination. […] All Biacore assays were conducted in HBS-EP running buffer (10 mM HEPES pH 7.4, 150 mM NaCl, 3 mM EDTA, 0.005% v/v polysorbate P20). CGRP surfaces were prepared by diluting the N-biotinylated CGRP to a concentration of less than 0.001 mg/mL into HBS-EP buffer and injecting it across the SA sensor chip using variable contact times. […] Samples were typically injected for 1 minute at 100 μL/min and dissociation times of at least 10 minutes were allowed. […] An entire titration series (typically generated in duplicate) was fit globally to a 1:1 Langmuir binding model using the BIAevaluation program. This returned a unique pair of association and dissociation kinetic rate constants (respectively, kₒₙ and koff) for each binding interaction, whose ratio gave the equilibrium dissociation constant (KD=koff/kₒₙ). […]
# [2] = molecular target: T2, human α-CGRP 1-37 (WT); assay: Biacore, 37°C, Fab over CGRP on SA chip
# Procedure: as §1
Binder,Kd [1] [nM],koff [1] [s⁻¹],Kd [2] [nM],koff [2] [s⁻¹]
"G1 variant M34 Fab (Fab, V domains shown, Fab; constant domains as m1) VH: EVQLVESGGGLVQPGGSLRLSCAASGFTFSNYWISWVRQAPGKGLEWVAEIRSKSDNTATHYAEAVKGRFTISRDNAKNSLYLQMNSLRAEDTAVYYCTVYFDYGLAIQNYWGQGTLVTVSS VL: EIVLTQSPATLSLSPGERATLSCKASKNVGTYVSWYQQKPGQAPRLLIYGASNRYLGIPARFSGSGSGTDFTLTISSLEPEDFAVYYCSQSYNYPYTFGQGTKLEIK",121,0.00217,4.04,0.000646
"G1 variant M42 Fab (Fab, V domains shown, Fab; constant domains as m1) VH: EVQLVESGGGLVQPGGSLRLSCAASGFTFSNYWISWVRQAPGKGLEWVAEIRSKSDNSATFYAEAVKGRFTISRDNAKNSLYLQMNSLRAEDTAVYYCTVYFDYGLAIQNYWGQGTLVTVSS VL: EIVLTQSPATLSLSPGERATLSCKASKNVTTYVSWYQQKPGQAPRLLIYAASNRYTGIPARFSGSGSGTDFTLTISSLEPEDFAVYYCSQSYNYPYTFGQGTKLEIK",418,0.00752,2.61,0.000417
"G1 variant M45 Fab (Fab, V domains shown, Fab; constant domains as m1) VH: EVQLVESGGGLVQPGGSLRLSCAASGFTFSNYWISWVRQAPGKGLEWVAEIRSKSDNEATHYADAVKGRFTISRDNAKNSLYLQMNSLRAEDTAVYYCTVYFDYGLAIQNYWGQGTLVTVSS VL: EIVLTQSPATLSLSPGERATLSCKASKNVTTYVSWYQQKPGQAPRLLIYAASNRYTGIPARFSGSGSGTDFTLTISSLEPEDFAVYYCSQSYNYPYTFGQGTKLEIK",259,0.00558,1.85,0.000211
"G1 variant M41 Fab (Fab, V domains shown, Fab; constant domains as m1) VH: EVQLVESGGGLVQPGGSLRLSCAASGFTFSNYWISWVRQAPGKGLEWVAEIRSKSDNSATHYADAVKGRFTISRDNAKNSLYLQMNSLRAEDTAVYYCTVYFDYGLAIQNYWGQGTLVTVSS VL: EIVLTQSPATLSLSPGERATLSCKASKNVTTYVSWYQQKPGQAPRLLIYAASNRYTGIPARFSGSGSGTDFTLTISSLEPEDFAVYYCSQSYNYPYTFGQGTKLEIK",252,0.00453,1.31,0.00021
"G1 variant M38 Fab (Fab, V domains shown, Fab; constant domains as m1) VH: EVQLVESGGGLVQPGGSLRLSCAASGFTFSNYWISWVRQAPGKGLEWVAEIRSESDASATHYAEAVKGRFTISRDNAKNSLYLQMNSLRAEDTAVYYCTVYFDYGLAIQNYWGQGTLVTVSS VL: EIVLTQSPATLSLSPGERATLSCKASKNVWTYVSWYQQKPGQAPRLLIYGASNRYLGIPARFSGSGSGTDFTLTISSLEPEDFAVYYCSQSYNYPYTFGQGTKLEIK",284,0.00511,1.36,0.000218
"G1 variant M50 Fab (Fab, V domains shown, Fab; constant domains as m1) VH: EVQLVESGGGLVQPGGSLRLSCAASGFTFSNYWISWVRQAPGKGLEWVAEIRSKSDRSATHYAEAVKGRFTISRDNAKNSLYLQMNSLRAEDTAVYYCTVYFDYGLAIQNYWGQGTLVTVSS VL: EIVLTQSPATLSLSPGERATLSCKASKNVTTYVSWYQQKPGQAPRLLIYAASNRYTGIPARFSGSGSGTDFTLTISSLEPEDFAVYYCSQSYNYPYTFGQGTKLEIK",294,0.0053,2.54,0.000406
"G1 variant M35 Fab (Fab, V domains shown, Fab; constant domains as m1) VH: EVQLVESGGGLVQPGGSLRLSCAASGFTFSNYWISWVRQAPGKGLEWVAEIRSKSDSSATHYAEAVKGRFTISRDNAKNSLYLQMNSLRAEDTAVYYCTVYFDYGLAIQNYWGQGTLVTVSS VL: EIVLTQSPATLSLSPGERATLSCKASKNVGTYVSWYQQKPGQAPRLLIYGASNRYLGIPARFSGSGSGTDFTLTISSLEPEDFAVYYCSQSYNYPYTFGQGTKLEIK",222,0.00399,2.12,0.000339
"G1 variant M46 Fab (Fab, V domains shown, Fab; constant domains as m1) VH: EVQLVESGGGLVQPGGSLRLSCAASGFTFSNYWISWVRQAPGKGLEWVAEIRSKSDNEATFYAEAVKGRFTISRDNAKNSLYLQMNSLRAEDTAVYYCTVYFDYGLAIQNYWGQGTLVTVSS VL: EIVLTQSPATLSLSPGERATLSCKASKNVTTYVSWYQQKPGQAPRLLIYAASNRYTGIPARFSGSGSGTDFTLTISSLEPEDFAVYYCSQSYNYPYTFGQGTKLEIK",163,0.00294,3.37,0.000539
"G1 variant M47 Fab (Fab, V domains shown, Fab; constant domains as m1) VH: EVQLVESGGGLVQPGGSLRLSCAASGFTFSNYWISWVRQAPGKGLEWVAEIRSKSDNGATHYAEAVKGRFTISRDNAKNSLYLQMNSLRAEDTAVYYCTVYFDYGLAIQNYWGQGTLVTVSS VL: EIVLTQSPATLSLSPGERATLSCKASKNVTTYVSWYQQKPGQAPRLLIYAASNRYTGIPARFSGSGSGTDFTLTISSLEPEDFAVYYCSQSYNYPYTFGQGTKLEIK",457,0.00823,2.08,0.000332
"G1 variant M48 Fab (Fab, V domains shown, Fab; constant domains as m1) VH: EVQLVESGGGLVQPGGSLRLSCAASGFTFSNYWISWVRQAPGKGLEWVAEIRSKSDNLATHYAEAVKGRFTISRDNAKNSLYLQMNSLRAEDTAVYYCTVYFDYGLAIQNYWGQGTLVTVSS VL: EIVLTQSPATLSLSPGERATLSCKASKNVTTYVSWYQQKPGQAPRLLIYAASNRYTGIPARFSGSGSGTDFTLTISSLEPEDFAVYYCSQSYNYPYTFGQGTKLEIK",1910,0.0343,5.26,0.000842
"G1 variant M39 Fab (Fab, V domains shown, Fab; constant domains as m1) VH: EVQLVESGGGLVQPGGSLRLSCAASGFTFSNYWISWVRQAPGKGLEWVAEIRSESDNYATHYAEAVKGRFTISRDNAKNSLYLQMNSLRAEDTAVYYCTVYFDYGLAIQNYWGQGTLVTVSS VL: EIVLTQSPATLSLSPGERATLSCKASKNVTTYVSWYQQKPGQAPRLLIYAASNRYTGIPARFSGSGSGTDFTLTISSLEPEDFAVYYCSQSYNYPYTFGQGTKLEIK",553,0.00995,2.66,0.000425
"G1 variant M37 Fab (Fab, V domains shown, Fab; constant domains as m1) VH: EVQLVESGGGLVQPGGSLRLSCAASGFTFSNYWISWVRQAPGKGLEWVAEIRSESDGSATHYAEAVKGRFTISRDNAKNSLYLQMNSLRAEDTAVYYCTVYFDYGLAIQNYWGQGTLVTVSS VL: EIVLTQSPATLSLSPGERATLSCKASKNVSTYVSWYQQKPGQAPRLLIYGASNRYLGIPARFSGSGSGTDFTLTISSLEPEDFAVYYCSQSYNYPYTFGQGTKLEIK",80.6,0.00145,1.41,0.000226
"G1 variant M49 Fab (Fab, V domains shown, Fab; constant domains as m1) VH: EVQLVESGGGLVQPGGSLRLSCAASGFTFSNYWISWVRQAPGKGLEWVAEIRSKSDNYATFYAEAVKGRFTISRDNAKNSLYLQMNSLRAEDTAVYYCTVYFDYGLAIQNYWGQGTLVTVSS VL: EIVLTQSPATLSLSPGERATLSCKASKNVTTYVSWYQQKPGQAPRLLIYAASNRYTGIPARFSGSGSGTDFTLTISSLEPEDFAVYYCSQSYNYPYTFGQGTKLEIK",822,0.0148,3.72,0.000595
"G1 variant M44 Fab (Fab, V domains shown, Fab; constant domains as m1) VH: EVQLVESGGGLVQPGGSLRLSCAASGFTFSNYWISWVRQAPGKGLEWVAEIRSKSDNEATHYAEAVKGRFTISRDNAKNSLYLQMNSLRAEDTAVYYCTVYFDYGLAIQNYWGQGTLVTVSS VL: EIVLTQSPATLSLSPGERATLSCKASKNVTTYVSWYQQKPGQAPRLLIYAASNRYTGIPARFSGSGSGTDFTLTISSLEPEDFAVYYCSQSYNYPYTFGQGTKLEIK",443,0.00613,2.05,0.00021
"G1 variant M40 Fab (Fab, V domains shown, Fab; constant domains as m1) VH: EVQLVESGGGLVQPGGSLRLSCAASGFTFSNYWISWVRQAPGKGLEWVAEIRSKSDLSATHYAEAVKGRFTISRDNAKNSLYLQMNSLRAEDTAVYYCTVYFDYGLAIQNYWGQGTLVTVSS VL: EIVLTQSPATLSLSPGERATLSCKASKNVTTYVSWYQQKPGQAPRLLIYAASNRYTGIPARFSGSGSGTDFTLTISSLEPEDFAVYYCSQSYNYPYTFGQGTKLEIK",20000,0.36,8,0.00128
"G1 variant M36 Fab (Fab, V domains shown, Fab; constant domains as m1) VH: EVQLVESGGGLVQPGGSLRLSCAASGFTFSNYWISWVRQAPGKGLEWVAEIRSESDASATHYAEAVKGRFTISRDNAKNSLYLQMNSLRAEDTAVYYCTVYFDYGLAIQNYWGQGTLVTVSS VL: EIVLTQSPATLSLSPGERATLSCKASKNVRTYVSWYQQKPGQAPRLLIYGASNRYLGIPARFSGSGSGTDFTLTISSLEPEDFAVYYCSQSYNYPYTFGQGTKLEIK",266,0.00479,1.49,0.000239
"G1 variant M43 Fab (Fab, V domains shown, Fab; constant domains as m1) VH: EVQLVESGGGLVQPGGSLRLSCAASGFTFSNYWISWVRQAPGKGLEWVAEIRSKSDNCATHYAEAVKGRFTISRDNAKNSLYLQMNSLRAEDTAVYYCTVYFDYGLAIQNYWGQGTLVTVSS VL: EIVLTQSPATLSLSPGERATLSCKASKNVTTYVSWYQQKPGQAPRLLIYAASNRYTGIPARFSGSGSGTDFTLTISSLEPEDFAVYYCSQSYNYPYTFGQGTKLEIK",252,0.00453,1.64,0.000263
